Assay results taken from publication PMC7081346, “Identification and characterization of N9-methyltransferase involved in converting caffeine into non-stimulatory theacrine in tea” (Nature Communications, 2020).

Columns and labels:
CkTbS [1] = molecular target: T1, CkTbS (Camellia sinensis, UniProt A0A6C0WX00, S270C); assay: in vitro methylation assay, HPLC; assay type: biochemical; conditions: SAM as methyl donor; printed as C270S, but CkTbS residue 270 is Ser
T1 construct: gene TBS; full-length, recombinant from E. coli BL21(DE3); N-terminal His6-SUMO tag cleaved with ULP1

CkTbS [2] = molecular target: T2, CkTbS (Camellia sinensis, UniProt A0A6C0WX00, T241I); assay: in vitro methylation assay, HPLC; assay type: biochemical; conditions: SAM as methyl donor
T2 construct: gene TBS; full-length, recombinant from E. coli BL21(DE3); N-terminal His6-SUMO tag cleaved with ULP1

CkTbS [3] = molecular target: T3, CkTbS (Camellia sinensis, UniProt A0A6C0WX00, H226R/T241I/S270C); assay: in vitro methylation assay, HPLC; assay type: biochemical; conditions: SAM as methyl donor; triple mutant, composition from the three variable residues
T3 construct: gene TBS; full-length, recombinant from E. coli BL21(DE3); N-terminal His6-SUMO tag cleaved with ULP1

[4] = substrate: Cn1c(=O)c2c([nH]c(=O)n2C)n(C)c1=O; assay: theacrine formation by HPLC-MS; assay type: biochemical, Camellia sinensis; conditions: 1.5 mM SAM, 200 μM MgCl2, 100 mM Tris-HCl pH 7.0, 27 °C
[5] = molecular target: the molecule itself; assay: crystal structure; CkTcS (eight N-terminal residues truncated) mixed with 2 mM SAH and 5 mM 1,3,7-trimethyluric acid; hanging drop, 4 °C, 0.1 M HEPES (pH 7.5), 1 M sodium citrate; 3.14 Å; homodimer in the crystal lattice
[6] = substrate: Cn1cnc2[nH]c(=O)[nH]c(=O)c21; assay: theobromine formation by HPLC-MS; assay type: biochemical, Camellia sinensis; conditions: 1.5 mM SAM, 200 μM MgCl2, 100 mM Tris-HCl pH 7.0, 27 °C
purified protein = substrate: C[S+](CC[C@H](N)C(=O)O)C[C@H]1O[C@@H](n2cnc3c(N)ncnc32)[C@H](O)[C@@H]1O; assay: purified protein; conditions: 50 μM 1,3,7-trimethyluric acid, 200 μM MgCl2, 100 mM Tris-HCl pH 7.0, 27 °C

T2 sequence (A0A6C0WX00 whole entry T241I): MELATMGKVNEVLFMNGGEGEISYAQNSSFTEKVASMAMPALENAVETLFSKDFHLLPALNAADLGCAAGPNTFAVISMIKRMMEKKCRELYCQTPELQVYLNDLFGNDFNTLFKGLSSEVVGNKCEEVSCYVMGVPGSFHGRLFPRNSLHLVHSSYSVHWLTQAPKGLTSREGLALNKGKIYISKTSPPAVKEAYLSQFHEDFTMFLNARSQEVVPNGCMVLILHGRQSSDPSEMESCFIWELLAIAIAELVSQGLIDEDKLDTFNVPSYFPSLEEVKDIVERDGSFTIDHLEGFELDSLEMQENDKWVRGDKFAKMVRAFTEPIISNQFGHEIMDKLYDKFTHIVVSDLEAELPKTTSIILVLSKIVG
T1 sequence (A0A6C0WX00 whole entry S270C): as the sequence (A0A6C0WX00 whole entry T241I) above, with I241T, S270C counted along it
T3 sequence (A0A6C0WX00 whole entry H226R/T241I/S270C): as the sequence (A0A6C0WX00 whole entry T241I) above, with H226R, S270C counted along it

**Q.** With `Cn1c(=O)c2c([nH]c(=O)n2C)n(C)c1=O` [compound 5, 1,3,7-trimethyluric acid] as the molecule, how does the “in vitro methylation assay, HPLC” value (CkTbS [1]) read?
**A.** Single mutation of T241I or C270S on CkTbS led to a moderate increase

**Q.** What about the “in vitro methylation assay, HPLC” value (CkTbS [2]) of the same molecule?
**A.** Single mutation of T241I or C270S on CkTbS led to a moderate increase

**Q.** And the “in vitro methylation assay, HPLC” value (CkTbS [3])?
**A.** the double and triple mutations further increased the N-methyltransferase activity

B1: CkCS (Camellia sinensis var. assamica) (protein)
chain: MELATREKVNEVLFMNRGEGESSYAQNSSFTQQVASMAQPALENAVETLFSKDFHLQALNAADLGCAAGPNTFAVISTIKRMMEKKCRELNCQTLELQVYLNDLFGNDFNTLFKGLSSEVIGNKCEEVPCYVMGVPGSFHGRLFPRNSLHLVYSSYSVHWLTQAPKGLTSREGLALNKGKIYISKTSPPVVREAYLSQFHEDFTMFLNYRSQEMVPNGCMVLILRGRQCFDPSDMQSCFTWELLALAIAELVSQGLIDEDKLDTFNIPSYFASLEEVKDIVERDGSFTIDHIEGFDLDSVEMQENDKWVRGEKFTKVVRAFSEPIISSQFGHEIMDKLYDKFTHIVVSDLEAKLPKTTSIILVLSKIVG
notes: full-length, recombinant from E. coli BL21(DE3); N-terminal His6-SUMO tag cleaved with ULP1
**Q.** How did the Km [4] turn out when B1 was run?
**A.** 71.49 ± 15.60 µM

**Q.** What about the kcat [4] of the same molecule?
**A.** 0.12 ± 0.01 ×10^-3 s^-1

B2: theacrine synthase CkTcS (N9-methyltransferase), N-terminal eight residues truncated (enzyme, Camellia assamica var. kucha (Kucha), UniProt A0A6C0WW36 9-370, looked up)
chain: VKEVLFMNTGEGESSYVQNSSFTEKVASMAMPALENAVETLFSKDFHLFQAINAADLGCATGPNTFAVISTIKRMMEKKCRELNCQTLELQVYMNDLFGNDFNTLFKGLSSKVIGNKCEEVSCYVMGVPGSFHGRLFPRNSLHLVHSSYSVHWLTQAPKGLTSREGLALNKGRIYISKTSPPVVREAYLSQFHEDFTMFLNARSQEVVPNGCMVLILRGRQSSDPSDMQSCFIWELLAIAIAELVSQGLIDEDKLDTFNIPCYFPSLEEVKDIVERDGSFTIDHMEGFELDSLQMQENDKWVRGEKFAKIVRAFTEPIISNQFGHEIMDKLYDKFTHIVVSDLEAKLPKTTSIILVLSKIVG
notes: CkTcS, theacrine synthase (N9-methyltransferase) of Camellia assamica var. kucha (Kucha); for crystallization eight residues on the N-terminal were truncated; source: E. coli BL21(DE3), purified (Nickel column, ion-exchange, size-exclusion); not shown: His6, N-terminal, cleaved; SUMO, N-terminal, cleaved
**Q.** B2 was tested. Which “stoichiometry N” value [5] did it give?
**A.** 2

B3: CkTbS (Camellia sinensis var. assamica) (protein)
chain: MELATMGKVNEVLFMNGGEGEISYAQNSSFTEKVASMAMPALENAVETLFSKDFHLLPALNAADLGCAAGPNTFAVISMIKRMMEKKCRELYCQTPELQVYLNDLFGNDFNTLFKGLSSEVVGNKCEEVSCYVMGVPGSFHGRLFPRNSLHLVHSSYSVHWLTQAPKGLTSREGLALNKGKIYISKTSPPAVKEAYLSQFHEDFTMFLNARSQEVVPNGCMVLILHGRQSSDPSEMESCFTWELLAIAIAELVSQGLIDEDKLDTFNVPSYFPSLEEVKDIVERDGSFTIDHLEGFELDSLEMQENDKWVRGDKFAKMVRAFTEPIISNQFGHEIMDKLYDKFTHIVVSDLEAELPKTTSIILVLSKIVG
notes: as for B1
**Q.** Which results are given for B3?
**A.** Km [4]: 162.20 ± 27.80 µM; kcat [4]: 0.18 ± 0.01 ×10^-3 s^-1

B4: CkTcS (Camellia sinensis var. assamica) (protein)
chain: MELATRGKVKEVLFMNTGEGESSYVQNSSFTEKVASMAMPALENAVETLFSKDFHLFQAINAADLGCATGPNTFAVISTIKRMMEKKCRELNCQTLELQVYMNDLFGNDFNTLFKGLSSKVIGNKCEEVSCYVMGVPGSFHGRLFPRNSLHLVHSSYSVHWLTQAPKGLTSREGLALNKGRIYISKTSPPVVREAYLSQFHEDFTMFLNARSQEVVPNGCMVLILRGRQSSDPSDMQSCFIWELLAIAIAELVSQGLIDEDKLDTFNIPCYFPSLEEVKDIVERDGSFTIDHMEGFELDSLQMQENDKWVRGEKFAKIVRAFTEPIISNQFGHEIMDKLYDKFTHIVVSDLEAKLPKTTSIILVLSKIVG
notes: full-length, recombinant from E. coli BL21(DE3); N-terminal His6-SUMO tag cleaved with ULP1; homodimer
**Q.** B4 was tested. Which Km [6] did it give?
**A.** 226.20 ± 33.95 µM

**Q.** And the kcat [6]?
**A.** 6.07 ± 0.21 ×10^-3 s^-1

**Q.** What about the Km [4] of the same molecule?
**A.** 4.68 ± 0.72 µM

**Q.** What about the kcat [4] of the same molecule?
**A.** 11.42 ± 0.37 ×10^-3 s^-1

**Q.** What about the Km (purified protein) of the same molecule?
**A.** 109.50 µM
